Source: patent US20220227883A1 (published 2022)
“And” between values parts separate entries of the source, which are not always exact repeats. Equal entries are not always repeated.

T1: KRAS G12D peptide on HLA-A*02:01 (human)
T1 peptide: KLVVVGADGV

T2: KRAS G12V peptide on HLA-A*02:01 (human)
T2 peptide: KLVVVGAVGV

T3: KRAS wild type peptide on HLA-A*02:01 (human)
T3 peptide: KLVVVGAGGV


Tests used:
[1] = target: T1, KRAS G12D peptide on HLA-A*02:01; test: multimer staining
[2] = target: T2, KRAS G12V peptide on HLA-A*02:01; test: multimer staining
[3] = target: HLA-A*02:01 presented KRAS^G12V epitope on cells (human); test: cell-based or functional assay
[4] = target: HLA-A*02:01 presented KRAS^wild type epitope on cells (human); test: cell-based or functional assay
[5] = target: HLA-A*02:01 presented KRAS^G12D epitope on cells (human); test: cell-based or functional assay
[6] = target: A*02:01-KRAS^G12V tetramer (human) (UniProt P61769); test: tetramer staining of TCR-transduced T cells, flow cytometry (FIG. 24)
[7] = target: T3, KRAS wild type peptide on HLA-A*02:01; test: killing
Method: (§1) KTCR1, KRAS^G12V-specific, HLA-A*02:01-restricted TCR and KTCR2 and KTCR3, KRAS^G12D-specific, HLA-A*02:01-restricted TCRs were co cultured with K562-A*02:01 antigen presenting cells which were peptide pulsed with either the KRAS^G12D, KRAS^G12V, KRAS^WT peptide (10 μg/mL) for 5 hours at an effector to target cell ratio of 5:1.

[8] = target: T1, KRAS G12D peptide on HLA-A*02:01; test: killing
Method: as §1

[9] = target: T2, KRAS G12V peptide on HLA-A*02:01; test: killing
Method: as §1

Binder	Mean % cytotoxicity (cell lysis) of K562 A*02:01 + KRAS^G12V target cells, FVS780 flow cytometry, 5 hours, effector to target 5:1 [3]	Mean % cytotoxicity (cell lysis) of K562 + KRAS^Wild type target cells, FVS780 flow cytometry, 5 hours, effector to target 5:1 [4]	Mean % cytotoxicity (cell lysis) of K562 A*02:01 + KRAS^G12D target cells, FVS780 flow cytometry, 5 hours, effector to target 5:1 [5]	binding result [7]	binding result [8]	binding result [9]	further results
KTCR-1 (TCR, V domains shown) Valpha: TQLLEQSPQFLSIQEGENLTVYCNSSSVFSSLQWYRQEPGEGPVLLVTVVTGGEVKKLKRLTFQFGDARKDSSLHITAAQPGDTGLYLCAGEFESNAGNMLTFGGGTRLMVKP Vbeta: DGGITQSPKYLFRKEGQNVTLSCEQNLNHDAMYWYRQDPGQGLRLIYYSQIVNDFQKGDIAEGYSVSREKKESFPLTVTSAQKNPTAFYLCASSIWLGPKGPGELFFGEGSRLTVL	16.5%	2.9%	4%	no recognition	–	–	binding result [1]: no recognition; binding result [2]: recognises; IFNγ ELISpot, KTCR-1 CD8+ T cells co-cultured with CFPAC-1 (HLA-A*02:01^+ KRAS^G12V), Mean (SFU of IFNγ/2.0 × 10^4 cell input) [3]: 42; IFNγ ELISpot, KTCR-1 CD8+ T cells co-cultured with CFPAC-1 (HLA-A*02:01^+ KRAS^G12V), replicate (SFU of IFNγ/2.0 × 10^4 cell input) [3]: 52 and 42; IFNγ ELISpot, KTCR-1 CD8+ T cells co-cultured with PANC-1 (HLA-A*02:01^+ KRAS^G12D), Mean (SFU of IFNγ/2.0 × 10^4 cell input) [5]: 19.5; IFNγ ELISpot, KTCR-1 CD8+ T cells co-cultured with PANC-1 (HLA-A*02:01^+ KRAS^G12D), replicate (SFU of IFNγ/2.0 × 10^4 cell input) [5]: 13 and 18; percent of TCR transduced T cells tetramer positive [6]: > 90%
KTCR-2 (TCR, V domains shown) Valpha: GESVGLHLPTLSVQEGDNSIINCAYSNSASDYFIWYKQESGKGPQFIIDIRSNMDKRQGQRVTVLLNKTVKHLSLQIAATQPGDSAVYFCAENRDTDKLIFGTGTRLQVFP Vbeta: DGGITQSPKYLFRKEGQNVTLSCEQNLNHDAMYWYRQDPGQGLRLIYYSQIVNDFQKGDIAEGYSVSREKKESFPLTVTSAQKNPTAFYLCASSIWLGPKGPGELFFGEGSRLTVL	4%	4.79%	19.1%	no recognition	recognises	no recognition	IFNγ ELISpot, KTCR-2 CD8+ T cells co-cultured with CFPAC-1 (HLA-A*02:01^+ KRAS^G12V), Mean (SFU of IFNγ/2.0 × 10^4 cell input) [3]: 11.5; IFNγ ELISpot, KTCR-2 CD8+ T cells co-cultured with CFPAC-1 (HLA-A*02:01^+ KRAS^G12V), replicate (SFU of IFNγ/2.0 × 10^4 cell input) [3]: 8 and 15; IFNγ ELISpot, KTCR-2 CD8+ T cells co-cultured with PANC-1 (HLA-A*02:01^+ KRAS^G12D), Mean (SFU of IFNγ/2.0 × 10^4 cell input) [5]: 98.5; IFNγ ELISpot, KTCR-2 CD8+ T cells co-cultured with PANC-1 (HLA-A*02:01^+ KRAS^G12D), replicate (SFU of IFNγ/2.0 × 10^4 cell input) [5]: 105 and 92
KTCR-3 (TCR, V domains shown) Valpha: TQLLEQSPQFLSIQEGENLTVYCNSSSVFSSLQWYRQEPGEGPVLLVTVVTGGEVKKLKRLTFQFGDARKDSSLHITAAQPGDTGLYLCAGEFESNAGNMLTFGGGTRLMVKP Vbeta: DTEVTQTPKHLVMGMTNKKSLKCEQHMGHRAMYWYKQKAKKPPELMFVYSYEKLSINESVPSRFSPECPNSSLLNLHLHALQPEDSALYLCASSLQITTDGYTFGSGTRLTVV	2%	2.82%	16.3%	no recognition	recognises	no recognition	IFNγ ELISpot, KTCR-3 CD8+ T cells co-cultured with CFPAC-1 (HLA-A*02:01^+ KRAS^G12V), Mean (SFU of IFNγ/2.0 × 10^4 cell input) [3]: 21; IFNγ ELISpot, KTCR-3 CD8+ T cells co-cultured with CFPAC-1 (HLA-A*02:01^+ KRAS^G12V), replicate (SFU of IFNγ/2.0 × 10^4 cell input) [3]: 13 and 19; IFNγ ELISpot, KTCR-3 CD8+ T cells co-cultured with PANC-1 (HLA-A*02:01^+ KRAS^G12D), Mean (SFU of IFNγ/2.0 × 10^4 cell input) [5]: 63; IFNγ ELISpot, KTCR-3 CD8+ T cells co-cultured with PANC-1 (HLA-A*02:01^+ KRAS^G12D), replicate (SFU of IFNγ/2.0 × 10^4 cell input) [5]: 73 and 53
